Columns and labels:
[1] = test system: b.end3 cells; experiment: In vitro BBB permeability, Dextran-FITC extravasation in Boyden chamber; type: cell-based, mouse; conditions: b.end3 monolayer; 4 h pre-treatment (10 μg/mL sRGMc, 10 μg/mL C3 Transferase or 10 μM Y27632), then RGMa 18 h
Protocol: (A) Neogenin expression was analyzed on the membrane of b.end3 cells using immunohistochemical staining and by Western blot. (B) Crystal violet staining showing the b.end3 cell monolayer, (C) Representative diagram of the boyden chamber set up and (D) BBB permeability in b.end3 cells. Serum-starved cells were incubated for 4 h with RGMa (10 μg/ml), C3 Transferase (10 μg/mL) or Y27632 (10 μM) or sRGMc (10 μg/mL) and were then incubated with sRGMa (5 μg/mL) for 18 h followed by seeding of Dextran-FITC onto the upper chamber. Extravasation was measured over a period of 60 min as described in the Examples. n=3, performed in triplicates.
b.End3 endothelial cells were used to generate an in vitro model of the human EC barrier lining the choroid plexus. Briefly, b.end3 cells were plated on polyethylene-coated 0.4 μm pore size Boyden chambers (Corning) at a density of 2×10^5 cells per well in DMEM, and were allowed to grow for 72 h to reach confluency (verified using crystal violet staining). After 72 h, cells were serum starved for 6 h and pre-treated for 4 h with 10 μg/mL sRGMc, 10 μg/mL C3 Transferase or 10 μM Y27632. RGMa was then added to the wells for 18 h. The transwells were then transferred to a new plate containing 500 μl of HBSS and 200 μl 4-KDa Dextran-FITC (25 mg/ml; Sigma-Aldrich) was added to the upper chambers. Tracer diffusion across the EC monolayer was assessed in 30 min intervals for a period of 1.5 h. FITC signal, which represented the amount of extravasation through the monolayer was analyzed with using a microplate reader.

[2] = molecular target: T1, Neogenin (Homo sapiens, UniProt Q92859); experiment: In vitro competition binding assay (AP-tagged proteins); conditions: competition assay, FIG. 6C
T1 construct: His-tagged proteins (2.5 μg/mL of extracellular-Neogenin or sRGMa or sRGMc) were then coated onto each well; His tag (coated format); Alkaline phosphatase (AP) fusion (solution format, Ec-Neogenin-AP); made in house
T1 sequence (Q92859 34-1105 limits assumed): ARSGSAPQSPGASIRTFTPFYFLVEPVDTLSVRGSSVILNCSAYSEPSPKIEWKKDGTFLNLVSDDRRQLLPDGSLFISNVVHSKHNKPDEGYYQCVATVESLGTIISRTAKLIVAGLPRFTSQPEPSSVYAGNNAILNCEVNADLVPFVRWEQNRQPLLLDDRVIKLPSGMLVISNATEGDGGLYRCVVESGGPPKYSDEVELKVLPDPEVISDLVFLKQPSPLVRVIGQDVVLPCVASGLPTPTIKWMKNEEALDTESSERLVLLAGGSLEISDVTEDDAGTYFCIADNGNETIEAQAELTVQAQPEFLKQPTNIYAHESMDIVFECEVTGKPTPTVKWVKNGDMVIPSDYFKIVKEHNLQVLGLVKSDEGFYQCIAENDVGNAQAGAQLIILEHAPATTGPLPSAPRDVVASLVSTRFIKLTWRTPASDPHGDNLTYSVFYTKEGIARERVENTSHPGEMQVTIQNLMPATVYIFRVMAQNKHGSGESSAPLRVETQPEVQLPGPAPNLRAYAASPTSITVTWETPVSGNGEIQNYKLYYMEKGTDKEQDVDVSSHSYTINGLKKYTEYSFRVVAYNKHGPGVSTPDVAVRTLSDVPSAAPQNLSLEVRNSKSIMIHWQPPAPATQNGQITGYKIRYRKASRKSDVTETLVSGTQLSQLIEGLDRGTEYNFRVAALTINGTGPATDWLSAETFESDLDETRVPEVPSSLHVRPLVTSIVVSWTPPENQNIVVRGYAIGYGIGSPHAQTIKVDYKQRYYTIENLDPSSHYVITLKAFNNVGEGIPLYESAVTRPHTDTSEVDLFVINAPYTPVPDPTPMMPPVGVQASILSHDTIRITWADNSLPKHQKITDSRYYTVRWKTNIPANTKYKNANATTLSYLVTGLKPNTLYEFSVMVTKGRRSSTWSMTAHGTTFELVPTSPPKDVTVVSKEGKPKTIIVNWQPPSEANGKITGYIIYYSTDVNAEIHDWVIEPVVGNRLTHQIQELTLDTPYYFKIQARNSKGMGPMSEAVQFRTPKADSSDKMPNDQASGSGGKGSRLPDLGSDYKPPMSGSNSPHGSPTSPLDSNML
Protocol: (C) Binding of Neogenin to bovine serum albumin (Neogenin+BSA), to RGMa (Neogenin+RGMa), and to RGMc (Neogenin+RGMc) in RGMa-AP and in RGMc-AP. Constructs overexpressing His-tagged sRGMa, sRGMc and the extracellular domains of Neogenin (Ec-Neogenin) were coated onto Poly-L-Lysine coated wells. Alkaline Phosphatase (AP)-tagged proteins (EC-Neogenin or RGMa or RGMc) were then added to each well and incubated at 37° C. for 1 h. Each well was washed and equilibrated with AP developing buffer (100 mM NaHCO3, 1 mM MgCl2). The reaction was initiated using AP developing buffer supplemented with p-nitrophenyl phosphate and then stopped following color development by adding 50 μl (0.1M) NaOH. The absorbance of each reaction was measured using a microplate autoreader at 405 nm as described in the Examples. (D) Binding of Neogenin-AP to bovine serum albumin (Neogenin-AP+BSA), to RGMa (Neogenin-AP+RGMa), and to RGMc (Neogenin-AP+RGMc). Competition assay was performed as described in the Examples and above but in which the constructs were reversed.
Using a 96-well microtiter plate (Corning), wells coated with 100 μl (10 μg/mL) of Poly-L-Lysine (Sigma-Aldrich) incubated at 4° C. overnight were then washed 3× with 100 μl of PBST (+0.02% Tween-20). […] The absorbance of each reaction was measured using a microplate autoreader (BioTek EL311 AutoReader) at 405 nm.

B1: sRGMc: truncated form of RGMc with the GPI anchor sequence removed, released as a soluble protein (SEQ ID NOs: 1 and 3) (protein, listed as Homo sapiens)
chain: CKILRCNAEYVSSTLSLRGGGSSGALRGGGGGGRGGGVGSGGLCRALRSYALCTRRTARTCRGDLAFHSAVHGIEDLMIQHNCSRQGPTAPPPPRGPALPGAGSGLPAPDPCDYEGRFSRLHGRPPGFLHCASFGDPHVRSFHHHFHTCRVQGAWPLLDNDFLFVQATSSPMALGANATATRKLTIIFKNMQECIDQKVYQAEVDNLPVAFEDGSINGGDRPGGSSLSIQTANPGNHVEIQAAYIGTTIIIRQTAGQLSFSIKVAEDVAMAFSAEQDLQLCVGGCPPSQRLSRSERNRRGAITIDTARRLCKEGLPVEDAYFHSCVFDVLISGDPNFTVAAQAALEDARAFLPDLEKLH
extravasation of Dextran-FITC in sRGMa-treated cells [1]: reproduced the RhoA/RhoK inhibitor effect
interference with RGMa binding to Neogenin [2]: interferes with RGMa for its binding to Neogenin

From patent US10874712B2, “Methods, compounds and compositions for modulating blood brain barrier integrity and re-myelination” (University Health Network, priority 2015, dated 2020)
